125 sequences from the supplement of paper PMC9112550, “Optimization of the antimicrobial peptide Bac7 by deep mutational scanning” (BMC Biology, 2022) can be followed below.

This series relates to Escherichia coli TOP10. Kind of series: shrunken log2 fold change of peptide-encoding DNA abundance (4.5 h post-induction vs induction); higher = less antimicrobial activity (less host growth inhibition). The conditions noted are these: time post-induction: 4.5 h; library: site-saturation at positions 5, 18, 19, 20.
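Further: peptides expressed intracellularly from a pBAD plasmid library in pooled LB shake-flask culture, induced with 0.3% L-arabinose, DNA abundance read by NGS, three biological replicates, DESeq2 with apeglm shrinkage.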

Regarding RRIRSRPPRLPRPRPRPCAEPRP, the “shrunken log2 fold change” value is 0.0817.
To RRIRVRPPRLPRPRPRPVLYPRP belongs -0.281; to RRIRTRPPRLPRPRPRPAHSPRP, 0.0608; to RRIRLRPPRLPRPRPRPMNIPRP, -0.504.
For RRIRHRPPRLPRPRPRPAYWPRP, the “shrunken log2 fold change” value was found to be 2.61.
RRIRRRPPRLPRPRPRPCADPRP: the “shrunken log2 fold change” value was 0.0637.
To RRIRIRPPRLPRPRPRPMEAPRP belongs -0.0793; to RRIRNRPPRLPRPRPRPKWIPRP, 0.0111.
For RRIRTRPPRLPRPRPRPQHLPRP, the “shrunken log2 fold change” value is -0.0898.
Regarding RRIRVRPPRLPRPRPRPVLQPRP, the “shrunken log2 fold change” value is 0.164.
Then RRIRSRPPRLPRPRPRPVPWPRP, with 0.212.
For RRIRFRPPRLPRPRPRPTMWPRP, the “shrunken log2 fold change” value is 0.0084.
Then RRIRCRPPRLPRPRPRPRWQPRP, with 0.0261; and RRIRFRPPRLPRPRPRPADTPRP, with -0.109; and RRIRARPPRLPRPRPRPYNGPRP, with -0.0341.
With RRIRCRPPRLPRPRPRPSHEPRP, the “shrunken log2 fold change” value is -0.334.
To RRIRTRPPRLPRPRPRPFGPPRP belongs 0.204; to RRIRVRPPRLPRPRPRPLWWPRP, 0.855.
Then RRIRQRPPRLPRPRPRPFDDPRP, with -0.275; and RRIRARPPRLPRPRPRPQAHPRP, with 0.324; and RRIRYRPPRLPRPRPRPTSFPRP, with -0.255.
To RRIRARPPRLPRPRPRPTQEPRP belongs 0.0329; to RRIRKRPPRLPRPRPRPEIVPRP, 1.08.
On to RRIRRRPPRLPRPRPRPLFTPRP, for which the “shrunken log2 fold change” value came out at 1.61.
Turning to RRIRNRPPRLPRPRPRPSMQPRP, the “shrunken log2 fold change” value was -0.152.
To RRIRQRPPRLPRPRPRPPEIPRP belongs -0.0671; to RRIRFRPPRLPRPRPRPMIQPRP, -0.0594.
Then RRIRHRPPRLPRPRPRPRACPRP, with 0.0227; and RRIRGRPPRLPRPRPRPFDDPRP, with 0.0195; and RRIRLRPPRLPRPRPRPMIKPRP, with 0.0349.
Then RRIRRRPPRLPRPRPRPKCSPRP, with 0.504.
Consider RRIRNRPPRLPRPRPRPGNSPRP, for which the “shrunken log2 fold change” value was -0.0208.
To RRIRWRPPRLPRPRPRPWGRPRP belongs 0.0619; to RRIRFRPPRLPRPRPRPNNQPRP, -0.559.
Then RRIRPRPPRLPRPRPRPYHWPRP, with -0.449; and RRIRPRPPRLPRPRPRPNAGPRP, with 0.0847.
To RRIRCRPPRLPRPRPRPTFPPRP belongs -0.0779; to RRIRERPPRLPRPRPRPYAVPRP, -0.441; to RRIRHRPPRLPRPRPRPPFFPRP, 0.168.
On to RRIRRRPPRLPRPRPRPMQCPRP, for which the “shrunken log2 fold change” value turned out to be 0.00703.
Take RRIRERPPRLPRPRPRPQCAPRP: the “shrunken log2 fold change” value stood at 0.0306.
To RRIRRRPPRLPRPRPRPEIWPRP belongs 0.621; to RRIRQRPPRLPRPRPRPPIRPRP, -0.0146.
Then RRIRLRPPRLPRPRPRPVATPRP, with 0.282; and RRIRMRPPRLPRPRPRPWAWPRP, with -0.0978; and RRIRFRPPRLPRPRPRPWMYPRP, with -0.673.
Then RRIRTRPPRLPRPRPRPYSYPRP, with -0.692; and RRIRARPPRLPRPRPRPAIKPRP, with 0.206; and RRIRHRPPRLPRPRPRPNRYPRP, with -0.398.
RRIRHRPPRLPRPRPRPTRTPRP: the “shrunken log2 fold change” value was found to be 0.365.
To RRIRQRPPRLPRPRPRPYRIPRP belongs -0.111; to RRIRMRPPRLPRPRPRPNCCPRP, -0.0306.
Then RRIRYRPPRLPRPRPRPSHVPRP, with -1.58; and RRIRIRPPRLPRPRPRPMRLPRP, with 0.0554.
To RRIRRRPPRLPRPRPRPDKYPRP belongs -0.259; to RRIRGRPPRLPRPRPRPVSNPRP, 0.568.
Consider RRIRSRPPRLPRPRPRPKLHPRP, for which the “shrunken log2 fold change” value was -0.0772.
Then RRIRARPPRLPRPRPRPNGTPRP, with 0.021.
On to RRIRQRPPRLPRPRPRPNFCPRP, for which the “shrunken log2 fold change” value turned out to be 0.117.
RRIRNRPPRLPRPRPRPGRKPRP: the “shrunken log2 fold change” value turned out to be 0.132.
To RRIRTRPPRLPRPRPRPPHEPRP belongs 0.373; to RRIRMRPPRLPRPRPRPNMLPRP, -0.358; to RRIRRRPPRLPRPRPRPHPAPRP, 0.583.
To RRIRGRPPRLPRPRPRPYAMPRP belongs 0.451; to RRIRCRPPRLPRPRPRPTYFPRP, -0.0696; to RRIRDRPPRLPRPRPRPVRNPRP, 0.282.
To RRIRMRPPRLPRPRPRPPMRPRP belongs 1.62.
On to RRIRYRPPRLPRPRPRPGMCPRP, for which the “shrunken log2 fold change” value came out at 0.0154.
Then RRIRKRPPRLPRPRPRPFSYPRP, with -0.324.
Then RRIRIRPPRLPRPRPRPLAKPRP, with -0.346; and RRIRCRPPRLPRPRPRPAPSPRP, with 0.504; and RRIRVRPPRLPRPRPRPELNPRP, with -0.0839.
Then RRIRFRPPRLPRPRPRPMGLPRP, with -0.00847.
Regarding RRIRIRPPRLPRPRPRPGNAPRP, the “shrunken log2 fold change” value is -0.0762.
Then RRIRVRPPRLPRPRPRPSLFPRP, with -0.269; and RRIRHRPPRLPRPRPRPVIHPRP, with -0.283; and RRIRVRPPRLPRPRPRPMAFPRP, with -0.00965.
To RRIRGRPPRLPRPRPRPFPMPRP belongs 0.533; to RRIRLRPPRLPRPRPRPQSTPRP, -0.0595.
Then RRIRARPPRLPRPRPRPQHDPRP, with -0.117.
Consider RRIRFRPPRLPRPRPRPHTAPRP, for which the “shrunken log2 fold change” value is -0.337.
Then RRIRRRPPRLPRPRPRPKMIPRP, with 0.103; and RRIRDRPPRLPRPRPRPNAKPRP, with 0.128; and RRIRTRPPRLPRPRPRPAVHPRP, with -0.0614.
Then RRIRTRPPRLPRPRPRPVNMPRP, with -0.192.
Then RRIRNRPPRLPRPRPRPKRQPRP, with -0.0692.
As for RRIRLRPPRLPRPRPRPECIPRP, the “shrunken log2 fold change” value is -0.0423.
Consider RRIRFRPPRLPRPRPRPTSGPRP, for which the “shrunken log2 fold change” value was 0.219.
For RRIRYRPPRLPRPRPRPFNIPRP, the “shrunken log2 fold change” value was -0.973.
Then RRIRGRPPRLPRPRPRPHMCPRP, with -0.01; and RRIRQRPPRLPRPRPRPYAHPRP, with -0.249.
Then RRIRVRPPRLPRPRPRPIQQPRP, with 0.00847; and RRIRCRPPRLPRPRPRPDQIPRP, with -0.212; and RRIRYRPPRLPRPRPRPYDRPRP, with -0.039.
For the sequence RRIRGRPPRLPRPRPRPYAIPRP, the “shrunken log2 fold change” value was -0.0622.
Then RRIRNRPPRLPRPRPRPVQNPRP, with -0.0269; and RRIRSRPPRLPRPRPRPSDAPRP, with 0.0409; and RRIRSRPPRLPRPRPRPNHWPRP, with -0.277.
RRIRQRPPRLPRPRPRPRMSPRP: the “shrunken log2 fold change” value stood at 0.208.
Then RRIRMRPPRLPRPRPRPPSNPRP, with 0.104; and RRIRNRPPRLPRPRPRPKNRPRP, with 0.0314.
On to RRIRKRPPRLPRPRPRPRRSPRP, for which the “shrunken log2 fold change” value worked out at 0.0846.
Regarding RRIRHRPPRLPRPRPRPMKIPRP, the “shrunken log2 fold change” value was -0.0248.
As for RRIRCRPPRLPRPRPRPVAEPRP, the “shrunken log2 fold change” value amounted to 0.417.
Then RRIRGRPPRLPRPRPRPYNRPRP, with 0.00858; and RRIRGRPPRLPRPRPRPLDPPRP, with 0.9.
Then RRIRKRPPRLPRPRPRPTYEPRP, with 0.367; and RRIRCRPPRLPRPRPRPEIMPRP, with -0.0581.
Then RRIRHRPPRLPRPRPRPRCWPRP, with 0.145; and RRIRCRPPRLPRPRPRPYSWPRP, with -0.77; and RRIRNRPPRLPRPRPRPSQCPRP, with -0.13.
For the sequence RRIRMRPPRLPRPRPRPAPHPRP, the “shrunken log2 fold change” value is 1.33.
To RRIRFRPPRLPRPRPRPTCHPRP belongs -0.231; to RRIRMRPPRLPRPRPRPGPNPRP, 0.641.
In the case of RRIRQRPPRLPRPRPRPKNQPRP, the “shrunken log2 fold change” value is -0.214.
Regarding RRIRCRPPRLPRPRPRPKCWPRP, the “shrunken log2 fold change” value is 0.302.
To RRIRLRPPRLPRPRPRPYWDPRP belongs -0.195.
Then RRIRIRPPRLPRPRPRPHCCPRP, with -0.642.
To RRIRWRPPRLPRPRPRPSQHPRP belongs 0.0667; to RRIRWRPPRLPRPRPRPACYPRP, 0.443.
With RRIRGRPPRLPRPRPRPCKQPRP, the “shrunken log2 fold change” value turned out to be 0.0431.
In the case of RRIRYRPPRLPRPRPRPKMHPRP, the “shrunken log2 fold change” value was -0.561.
To RRIRGRPPRLPRPRPRPRWPPRP belongs 0.973.
Then RRIRHRPPRLPRPRPRPDENPRP, with -0.225; and RRIRARPPRLPRPRPRPTGHPRP, with -0.132.
